Measured values reported in the supplement of paper PMC10724198.

Assays:
[1] = test system: Saccharomyces cerevisiae; assay: protein stability index of tFT-peptide fusion in deletion strain of DOA10 (PSI (0-1 scale)); higher = more stable (slower turnover)
Method: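 MPS profiling in S. cerevisiae of two library types built from selected 12-aa C-degron peptides (IN1, IN2, LN1, LN3, VN2, R1-R5, W1-W3, Atg1 and Rpa12 C-termini): saturation mutagenesis libraries and C-terminal +1 capping libraries (13 aa). Each peptide is fused to the C-terminus of a sfGFP-mCherry timer, after a GGGS linker. Cells are FACS-sorted into 8 mCherry/sfGFP bins and sequenced. PSI runs from 0 (unstable) to 1 (stable), measured once in wild type and in the das1Δ or doa10Δ background.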

[2] = test system: Saccharomyces cerevisiae; assay: protein stability index of tFT-peptide fusion in wild type (PSI (0-1 scale)); higher = more stable (slower turnover); conditions: genetic background: wild type
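Wherever protein stability index of tFT-peptide fusion in deletion strain of DOA10 is given: PSI per variant is the weighted mean of its sequencing read distribution over the sorted stability bins, counting only variants with over 10 reads summed across bins.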
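Wherever protein stability index of tFT-peptide fusion in wild type is given: PSI derived as read-weighted mean over the 8 sorting bins, only variants exceeding 10 total reads kept, mCherry placed adjacent to the peptide and sfGFP distal.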

Sequence	protein stability index [1]	protein stability index [2]
RVTRLDADYFRI	0.722	0.686
RVTRLDAEYFRI	0.693	0.675
RVTRLDAFYFRI	0.713	0.644
RVTRLDAIIFRI	0.703	0.499
RVTRLDAIYDRI	0.731	0.696
RVTRLDAIYFGI	0.721	0.682
RVTRLDAIYFRID	0.603	0.54
RVTRLDAIYGRI	0.724	0.69
RVTRLDAIYSRI	0.737	0.702
RVTRLDATYFRI	0.69	0.661
RVTRLDDIYFRI	0.731	0.689
RVTRLDTIYFRI	0.69	0.423
RVTYLDAIYFRI	0.563	0.393
RYTRLDAIYFRI	0.673	0.421
VITLPMCPLLLR	0.615	0.303
YITLPMCPLLLR	0.616	0.337
YLYMCSVGCWFR	0.586	0.317
YVTRLDAIYFRI	0.603	0.185
